# Target: T1, IKZF3 136-180 and 236-249-tagged avian myelocytomatosis viral oncogene (MYC) homolog (Homo sapiens, UniProt Q96SW2+Q9UKT9, DEL181-196/S197T)
# T1 construct: expressed in transfected cells; host or cells: HEK293T
# Experiment: Western blot of IKZF3-tagged MYC in HEK293T cells
# Type: cell-based
# Conditions: tag fused to N-terminus of MYC; lenalidomide 4 hours
# T1 sequence (Q96SW2 whole entry, stated change not applied, one chain of several): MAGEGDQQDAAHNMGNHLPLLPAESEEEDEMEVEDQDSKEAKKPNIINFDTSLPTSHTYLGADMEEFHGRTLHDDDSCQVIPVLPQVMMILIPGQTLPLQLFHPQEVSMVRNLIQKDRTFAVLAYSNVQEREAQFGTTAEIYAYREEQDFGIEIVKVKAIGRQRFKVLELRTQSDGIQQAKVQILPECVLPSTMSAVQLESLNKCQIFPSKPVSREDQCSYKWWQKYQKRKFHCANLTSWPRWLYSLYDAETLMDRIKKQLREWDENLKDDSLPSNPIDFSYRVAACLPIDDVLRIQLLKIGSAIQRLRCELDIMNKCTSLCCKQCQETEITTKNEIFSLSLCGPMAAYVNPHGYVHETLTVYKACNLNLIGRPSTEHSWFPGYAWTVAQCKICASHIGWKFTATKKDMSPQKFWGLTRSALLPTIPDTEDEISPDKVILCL
substance,measurement,value
"IKZF3 136-180 and 236-249: IKZF3-based degradation tag with amino acid residues 136-180 and 236-249 of human IKZF3, SEQ ID NO: 3 (HKRSHTGERPFQCNQCGASFTQKGNLLRHIKLHTGEKPFKCHLCNTASAEARHIKAEMG; source: /note=""Description of Unknown: IKZF3 sequence"")",ability of the tag to mediate lenalidomide-dependent degradation of MYC,mediated the lenalidomide-dependent degradation of tagged MYC

# Reference: US20220251152A1, “COMPOSITIONS AND METHODS FOR SELECTIVE PROTEIN DEGRADATION” (Novartis AG, priority 2019, published 2022)
